B1: Transcription elongation factor A N-terminal and central domain-containing protein, residues 30 to 77; numbered along this chain, Q8N8B7 (parent)
chain: LTELETIYVTKEHLQETDVVRAVYRVLKNCPSVALKKKAKCLLSKWKA

Results on 54 variants are retold here after the Human Domainome abundance scans (Beltran et al. 2025).

± gives the uncertainty stated by the source.

The data set covers variants of B1. Put plainly: abundance fitness (aPCA) (normalised: wild type 0, dead -1); higher = more abundant; growth selection in yeast, the domain comes from the species named. The settings on record: Homo sapiens.
LTELETIYVTKEHLQETDVVRAVYRVDKNCPSVALKKKAKCLLSKWKA [L27D]: the abundance fitness is -0.901 ± 0.23.
Then LTELETIYVTKEHLQETDVVRAVYRVIKNCPSVALKKKAKCLLSKWKA [L27I], with -0.053 ± 0.14; and LTELETIYVTKEHLQETDVVRAVYRVNKNCPSVALKKKAKCLLSKWKA [L27N], with -0.846 ± 0.26; and LTELETIYVTKEHLQETDVVRAVYRVQKNCPSVALKKKAKCLLSKWKA [L27Q], with -0.648 ± 0.27.
Then LTELETIYVTKEHLQETDVVRAVYRVAKNCPSVALKKKAKCLLSKWKA [L27A], with -0.593 ± 0.11.
As for LTELETIYVTKEHLQETDVVRAVYRVYKNCPSVALKKKAKCLLSKWKA [L27Y], the abundance fitness is -0.352 ± 0.14.
Consider LTELETIYVTKEHLQETDVVRAVYRVEKNCPSVALKKKAKCLLSKWKA [L27E], for which the abundance fitness was -0.932 ± 0.16.
With LTELETIYVTKEHLQETDVVRAVYRVPKNCPSVALKKKAKCLLSKWKA [L27P], the abundance fitness is -0.444 ± 0.18.
Then LTELETIYVTKEHLQETDVVRAVYRVKKNCPSVALKKKAKCLLSKWKA [L27K], with -0.845 ± 0.17; and LTELETIYVTKEHLQETDVVRAVYRVWKNCPSVALKKKAKCLLSKWKA [L27W], with -0.031 ± 0.1; and LTELETIYVTKEHLQETDVVRAVYRVSKNCPSVALKKKAKCLLSKWKA [L27S], with -0.966 ± 0.15.
Take LTELETIYVTKEHLQETDVVRAVYRVTKNCPSVALKKKAKCLLSKWKA [L27T]: the abundance fitness is -0.883 ± 0.14.
Then LTELETIYVTKEHLQETDVVRAVYRVFKNCPSVALKKKAKCLLSKWKA [L27F], with -0.754 ± 0.27; and LTELETIYVTKEHLQETDVVRAVYRVCKNCPSVALKKKAKCLLSKWKA [L27C], with -0.994 ± 0.21.
Then LTELETIYVTKEHLQETDVVRAVYRVRKNCPSVALKKKAKCLLSKWKA [L27R], with -0.848 ± 0.1; and LTELETIYVTKEHLQETDVVRAVYRVLRNCPSVALKKKAKCLLSKWKA [K28R], with -0.033 ± 0.074; and LTELETIYVTKEHLQETDVVRAVYRVLMNCPSVALKKKAKCLLSKWKA [K28M], with -0.749 ± 0.13.
For the variant LTELETIYVTKEHLQETDVVRAVYRVLPNCPSVALKKKAKCLLSKWKA [K28P], the abundance fitness was -0.379 ± 0.13.
Turning to LTELETIYVTKEHLQETDVVRAVYRVLWNCPSVALKKKAKCLLSKWKA [K28W], the abundance fitness worked out at 0.04 ± 0.092.
Then LTELETIYVTKEHLQETDVVRAVYRVLENCPSVALKKKAKCLLSKWKA [K28E], with -0.679 ± 0.13.
Turning to LTELETIYVTKEHLQETDVVRAVYRVLNNCPSVALKKKAKCLLSKWKA [K28N], the abundance fitness is -0.445 ± 0.14.
The figure for LTELETIYVTKEHLQETDVVRAVYRVLLNCPSVALKKKAKCLLSKWKA [K28L] is -0.237 ± 0.077.
Take LTELETIYVTKEHLQETDVVRAVYRVLQNCPSVALKKKAKCLLSKWKA [K28Q]: the abundance fitness is -0.734 ± 0.16.
For LTELETIYVTKEHLQETDVVRAVYRVLVNCPSVALKKKAKCLLSKWKA [K28V], the abundance fitness is -0.142 ± 0.073.
For LTELETIYVTKEHLQETDVVRAVYRVLHNCPSVALKKKAKCLLSKWKA [K28H], the abundance fitness is -0.435 ± 0.13.
Then LTELETIYVTKEHLQETDVVRAVYRVLGNCPSVALKKKAKCLLSKWKA [K28G], with -0.402 ± 0.083.
Regarding LTELETIYVTKEHLQETDVVRAVYRVLDNCPSVALKKKAKCLLSKWKA [K28D], the abundance fitness is -0.789 ± 0.19.
Turning to LTELETIYVTKEHLQETDVVRAVYRVLINCPSVALKKKAKCLLSKWKA [K28I], the abundance fitness was -0.149 ± 0.15.
Turning to LTELETIYVTKEHLQETDVVRAVYRVLSNCPSVALKKKAKCLLSKWKA [K28S], the abundance fitness is -0.368 ± 0.1.
Regarding LTELETIYVTKEHLQETDVVRAVYRVLANCPSVALKKKAKCLLSKWKA [K28A], the abundance fitness is -0.509 ± 0.09.
Regarding LTELETIYVTKEHLQETDVVRAVYRVLFNCPSVALKKKAKCLLSKWKA [K28F], the abundance fitness is -0.247 ± 0.13.
Then LTELETIYVTKEHLQETDVVRAVYRVLTNCPSVALKKKAKCLLSKWKA [K28T], with -0.169 ± 0.093; and LTELETIYVTKEHLQETDVVRAKYRVLKNCPSVALKKKAKCLLSKWKA [V23K], with -0.573 ± 0.1; and LTELETIYVTKEHLQETDVVRALYRVLKNCPSVALKKKAKCLLSKWKA [V23L], with 0.041 ± 0.095.
LTELETIYVTKEHLQETDVVRAAYRVLKNCPSVALKKKAKCLLSKWKA [V23A]: the abundance fitness is -0.453 ± 0.091.
The figure for LTELETIYVTKEHLQETDVVRAEYRVLKNCPSVALKKKAKCLLSKWKA [V23E] is -0.584 ± 0.11; for LTELETIYVTKEHLQETDVVRASYRVLKNCPSVALKKKAKCLLSKWKA [V23S] it is -0.54 ± 0.11.
With LTELETIYVTKEHLQETDVVRAGYRVLKNCPSVALKKKAKCLLSKWKA [V23G], the abundance fitness is -0.72 ± 0.08.
Then LTELETIYVTKEHLQETDVVRARYRVLKNCPSVALKKKAKCLLSKWKA [V23R], with -0.426 ± 0.073.
The figure for LTELETIYVTKEHLQETDVVRAIYRVLKNCPSVALKKKAKCLLSKWKA [V23I] is 0.189 ± 0.091; for LTELETIYVTKEHLQETDVVRAWYRVLKNCPSVALKKKAKCLLSKWKA [V23W] it is -0.009 ± 0.1.
The figure for LTELETIYVTKEHLQETDVVRAHYRVLKNCPSVALKKKAKCLLSKWKA [V23H] is -0.81 ± 0.21.
In the case of LTELETIYVTKEHLQETDVVRAPYRVLKNCPSVALKKKAKCLLSKWKA [V23P], the abundance fitness was -0.833 ± 0.16.
In the case of LTELETIYVTKEHLQETDVVRATYRVLKNCPSVALKKKAKCLLSKWKA [V23T], the abundance fitness was -0.122 ± 0.11.
On to LTELETIYVTKEHLQETDVVRAFYRVLKNCPSVALKKKAKCLLSKWKA [V23F], for which the abundance fitness was -0.021 ± 0.27.
The figure for LTELETIYVTKEHLQETDVVRAQYRVLKNCPSVALKKKAKCLLSKWKA [V23Q] is -0.901 ± 0.16.
As to LTELETIYVTKEHLQETDVVRANYRVLKNCPSVALKKKAKCLLSKWKA [V23N], the abundance fitness is -1.04 ± 0.23.
Then LTELETIYVTKEHLQETDVVRADYRVLKNCPSVALKKKAKCLLSKWKA [V23D], with -0.578 ± 0.16; and LTELETIYVTKEHLQETDVVRAMYRVLKNCPSVALKKKAKCLLSKWKA [V23M], with -0.087 ± 0.12.
The figure for LTELETIYVTKEHLQETDVVRAVYRVLKECPSVALKKKAKCLLSKWKA [N29E] is -0.536 ± 0.12; for LTELETIYVTKEHLQETDVVRAVYRVLKCCPSVALKKKAKCLLSKWKA [N29C] it is 0 ± 0.11.
Regarding LTELETIYVTKEHLQETDVVRAVYRVLKFCPSVALKKKAKCLLSKWKA [N29F], the abundance fitness was -0.09 ± 0.15.
The figure for LTELETIYVTKEHLQETDVVRAVYRVLKDCPSVALKKKAKCLLSKWKA [N29D] is -0.193 ± 0.17.
Then LTELETIYVTKEHLQETDVVRAVYRVLKACPSVALKKKAKCLLSKWKA [N29A], with -0.086 ± 0.08.
